Test results from patent US20230125550A1 (ARCELLX, published 2023).

T1: recombinant human CD123-Fc (human, UniProt P26951 19-305)
T1 construct: not shown: Fc part of CD123-Fc
T1 sequence: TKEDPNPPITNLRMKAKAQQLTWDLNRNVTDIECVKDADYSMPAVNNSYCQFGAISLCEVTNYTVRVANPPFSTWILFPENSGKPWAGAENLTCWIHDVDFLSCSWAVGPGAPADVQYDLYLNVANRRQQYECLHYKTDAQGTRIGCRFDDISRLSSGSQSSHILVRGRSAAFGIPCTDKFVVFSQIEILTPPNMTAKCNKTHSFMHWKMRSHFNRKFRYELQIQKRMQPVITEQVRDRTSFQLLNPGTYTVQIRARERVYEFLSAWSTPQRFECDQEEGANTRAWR

B1: SEQ ID NO: 437 (designed binder)
chain: MGSWWLFKDDLAEIKYWLEALGGSEAELAFFEDDIAEFERGLQIYKGKGNPEVEALRKEAAAIRDELQAYRHN
notes: D domain, on phage
B2: SEQ ID NO: 460 (designed binder)
chain: MGSWHLFKWTLAEIKYELEALGGSEAELAWFEDDIATFEEELQWYKGKGNPEVEALRKEAAAIRDELQAYRHN
notes: D domain, on phage
B3: SEQ ID NO: 448 (designed binder)
chain: MGSWTFFKNDLAEIKDWLEALGGSEAELADFEWDIAEFEYSLQEYKGKGNPEVEALRKEAAAIRDELQAYRHN
notes: D domain, on phage
B4: SEQ ID NO: 440 (designed binder)
chain: MGSWILFKDDLAWIKETLEALGGSEAELAFFEDNIADFEEQLQGYKGKGNPEVEALRKEAAAIRDELQAYRHN
notes: D domain, on phage
B5: SEQ ID NO: 438 (designed binder)
chain: MGSWYEFKDDLAEIKEWLEALGGSEAELAFFELDIADFEWLLQLYKGKGNPEVEALRKEAAAIRDELQAYRHN
notes: D domain, on phage
B6: SEQ ID NO: 449 (designed binder)
chain: MGSWTYFKDDLADIKQWLEALGGSEAELAFFEIEIAEFEEELQEYKGKGNPEVEALRKEAAAIRDELQAYRHN
notes: D domain, on phage
B7: SEQ ID NO: 447 (designed binder)
chain: MGSWVFFKDDLADIKDELEALGGSEAELAFFEIAIALFEWELQEYKGKGNPEVEALRKEAAAIRDELQAYRHN
notes: D domain, on phage
B8: SEQ ID NO: 450 (designed binder)
chain: MGSWTVFKYDLADIKWWLEALGGSEAELADFEEEIAEFEEELQEYKGKGNPEVEALRKEAAAIRDELQAYRHN
notes: D domain, on phage
B9: SEQ ID NO: 446 (designed binder)
chain: MGSWTFFKEDLAGIKWELEALGGSEAELAWFEDEIALFEEELQEYKGKGNPEVEALRKEAAAIRDELQAYRHN
notes: D domain, on phage
B10: SEQ ID NO: 434 (designed binder)
chain: MGSWFYFKDDLADINYMLEALGGSEAELAMFEDDIAGFELTLLKYKGKGNPEVEALRKEAAAIRDELQAYRHN
notes: D domain, on phage
B11: SEQ ID NO: 461 (designed binder)
chain: MGSWVTFKDELADIKDFLEALGGSEAELAFFEVDIAEFEAELQFYKGKGNPEVEALRKEAAAIRDELQAYRHN
notes: D domain, on phage
B12: SEQ ID NO: 463 (designed binder)
chain: MGSWETFKYELAEIKDYLEALGGSEAELAWFEDDIAEFEFELQYYKGKGNPEVEALRKEAAAIRDELQAYRHN
notes: D domain, on phage
B13: SEQ ID NO: 462 (designed binder)
chain: MGSWVYFKDELADIKDFLEALGGSEAELAEFEEDIATFEYDLQWYKGKGNPEVEALRKEAAAIRDELQAYRHN
notes: D domain, on phage
B14: SEQ ID NO: 464 (designed binder)
chain: MGSWNTFKYELAEIKHFLEALGGSEAELAMFEDDIAMFEWELQEYKGKGNPEVEALRKEAAAIRDELQAYRHN
notes: D domain, on phage
B15: SEQ ID NO: 441 (designed binder)
chain: MGSWIVFKDDLADIKRWLEALGGSEAELAMFEDEIADFEWQLQDYKGKGNPEVEALRKEAAAIRDELQAYRHN
notes: D domain, on phage
B16: SEQ ID NO: 433 (designed binder)
chain: MGSWNEFEDRLDAIWWRLFALGGSEAELAAFEKEIAAFESELQAYKGKGNPEVEALRVEAAFIRTMLQAYRHN
notes: D domain, on phage
B17: SEQ ID NO: 435 (designed binder)
chain: MGSWHFFKDDLAWIKNELEALGGSEAELAMFEDDIAMFETMLQSYKGKGNPEVEALRKEAAAIRDELQAYRHN
notes: D domain, on phage
B18: SEQ ID NO: 436 (designed binder)
chain: MGSWHWFKTDLADIKEELEALGGSEAELAMFEDDIAEFEEFLQMYKGKGNPEVEALRKEAAAIRDELQAYRHN
notes: D domain, on phage
B19: SEQ ID NO: 442 (designed binder)
chain: MGSWGHFKQDLAWIKDTLEALGGSEAELAFFEDDIAMFEMELQDYKGKGNPEVEALRKEAAAIRDELQAYRHN
notes: D domain, on phage
B20: SEQ ID NO: 443 (designed binder)
chain: MGSWGYFKDDLAWIKGELEALGGSEAELAEFEWFIAVFEEDLQVYKGKGNPEVEALRKEAAAIRDELQAYRHN
notes: D domain, on phage
B21: SEQ ID NO: 439 (designed binder)
chain: MGSWQWFKDDLAYIKETLEALGGSEAELALFEDMIADFEFELQWYKGKGNPEVEALRKEAAAIRDELQAYRHN
notes: D domain, on phage
B22: SEQ ID NO: 444 (designed binder)
chain: MGSWYWFKDDLAEIKGLLEALGGSEAELAEFEDEIAVFEQELQEYKGKGNPEVEALRKEAAAIRDELQAYRHN
notes: D domain, on phage
B23: SEQ ID NO: 451 (designed binder)
chain: MGSWYWFKQDLAHIKSMLEALGGSEAELAWFEEDIADFESELQEYKGKGNPEVEALRKEAAAIRDELQAYRHN
notes: D domain, on phage
B24: SEQ ID NO: 459 (designed binder)
chain: MGSWIFFKQDLAEIKLNLEALGGSEAELAWFEDDIAWFESHLQDYKGKGNPEVEALRKEAAAIRDELQAYRHN
notes: D domain, on phage
B25: SEQ ID NO: 456 (designed binder)
chain: MGSWYWFKEELAFIKWELEALGGSEAELALFEEDIAYFEEMLQEYKGKGNPEVEALRKEAAAIRDELQAYRHN
notes: D domain, on phage
B26: SEQ ID NO: 455 (designed binder)
chain: MGSWQTFKDELAHIKWELEALGGSEAELAWFEWDIANFEEELQEYKGKGNPEVEALRKEAAAIRDELQAYRHN
notes: D domain, on phage
B27: SEQ ID NO: 452 (designed binder)
chain: MGSWTFFKWDLADIKANLEALGGSEAELAWFEEDLAGFEAELQEYKGKGNPEVEALRKEAAAIRDELQAYRHN
notes: D domain, on phage
B28: SEQ ID NO: 457 (designed binder)
chain: MGSWNSFKDELAEIKAELEALGGSEAELAFFEEDIAWFEEHLQQYKGKGNPEVEALRKEAAAIRDELQAYRHN
notes: D domain, on phage
B29: SEQ ID NO: 458 (designed binder)
chain: MGSWDLFKWELAEIKLGLEALGGSEAELAEFEYDIAWFEEDLQDYKGKGNPEVEALRKEAAAIRDELQAYRHN
notes: D domain, on phage
B30: SEQ ID NO: 445 (designed binder)
chain: MGSWMFFKEDLADIKWALEALGGSEAELAFFEEEIALFEQHLQQYKGKGNPEVEALRKEAAAIRDELQAYRHN
notes: D domain, on phage
B31: SEQ ID NO: 453 (designed binder)
chain: MGSWSFFKEELANIQVYLEALGGSEAELAWFEEDIADFEEDLQHYKGKGNPEVEALRKEAAAIRDELQAYRHN
notes: D domain, on phage
B32: SEQ ID NO: 454 (designed binder)
chain: MGSWEFFKYELADIKDELEALGGSEAELAWFEEDIATFEEWLQGYKGKGNPEVEALRKEAAAIRDELQAYRHN
notes: D domain, on phage

Molecular target: T1, recombinant human CD123-Fc
Experiment: phage ELISA, captured CD123-Fc
Procedure: Individual colonies containing phagemid from BCMA panning output were picked and phage were rescued in 96-well format using VCSM13 helper phage following standard protocols. To assay target binding by ELISA, 96-well plates were coated with 1.3 microg/ml goat anti-human IgG1-Fc antibody followed by incubation with 5 nM of recombinant human target (BCMA-Fc, CD123-Fc, AFP, or AFP123) or IgG1-Fc. 50 microl of rescued phage diluted 5× in ELISA blocking buffer was then added to each well. Binding was detected using an HRP-conjugated anti-M13 antibody and the ELISA ratio for each sequence is reported as the absorbance at 450 nm for target (i.e., BCMA-Fc, CD123-Fc, AFP, or AFP123) divided by that for IgG1-Fc averaged across all screened wells containing that clone.

Compared with B1, B2 is higher in ELISA_avg: 3.3 ratio A450 target/IgG1-Fc for the first, 4 ratio A450 target/IgG1-Fc for the second.

Going from B3 to B4, the ELISA_avg rises from 3.9 ratio A450 target/IgG1-Fc to 6 ratio A450 target/IgG1-Fc.

Going from B5 to B6, the ELISA_avg rises from 3.8 ratio A450 target/IgG1-Fc to 4.6 ratio A450 target/IgG1-Fc.

Going from B7 to B8, the ELISA_avg falls from 8.8 ratio A450 target/IgG1-Fc to 3.9 ratio A450 target/IgG1-Fc.

Compared with B9, B10 is lower in ELISA_avg: 7 ratio A450 target/IgG1-Fc for the first, 3.7 ratio A450 target/IgG1-Fc for the second.

First: B11
Second: B12
The ELISA_avg of the first is higher: 7.6 ratio A450 target/IgG1-Fc for the first, 4.4 ratio A450 target/IgG1-Fc for the second.

First: B13
Second: B14
The ELISA_avg of the first is lower: 4.6 ratio A450 target/IgG1-Fc for the first, 5 ratio A450 target/IgG1-Fc for the second.

Compared with B15, B16 is higher in ELISA_avg: 3.9 ratio A450 target/IgG1-Fc for the first, 5.1 ratio A450 target/IgG1-Fc for the second.

First: B17
Second: B18
The ELISA_avg of the first is lower: 3.2 ratio A450 target/IgG1-Fc for the first, 3.5 ratio A450 target/IgG1-Fc for the second.

Going from B19 to B20, the ELISA_avg falls from 4.9 ratio A450 target/IgG1-Fc to 4.5 ratio A450 target/IgG1-Fc.

Going from B21 to B22, the ELISA_avg rises from 6.3 ratio A450 target/IgG1-Fc to 10.4 ratio A450 target/IgG1-Fc.

First: B23
Second: B24
The ELISA_avg of the first is lower: 3.3 ratio A450 target/IgG1-Fc for the first, 3.8 ratio A450 target/IgG1-Fc for the second.

Compared with B25, B26 is lower in ELISA_avg: 9.4 ratio A450 target/IgG1-Fc for the first, 5.5 ratio A450 target/IgG1-Fc for the second.

Going from B27 to B28, the ELISA_avg falls from 4.8 ratio A450 target/IgG1-Fc to 3.3 ratio A450 target/IgG1-Fc.

Going from B29 to B30, the ELISA_avg falls from 3.4 ratio A450 target/IgG1-Fc to 3.2 ratio A450 target/IgG1-Fc.

Compared with B31, B32 is lower in ELISA_avg: 3.8 ratio A450 target/IgG1-Fc for the first, 3.4 ratio A450 target/IgG1-Fc for the second.
